Where “and” joins values, the source holds several entries; their conditions need not be identical. Identical values can stand only once.
Experiments:
derCD23 = target: T1, derCD23 (human); experiment: SPR; N-terminally His-tagged IgE-Fc captured with an anti-His-tag antibody (Biacore His Capture Kit); derCD23 injected at 10 to 0.156 uM; HBS-P with 5 mM CaCl2, 25 °C; settings: both partners purified
T1 construct: human CD23 (FcεRII), soluble monomeric fragment called derCD23; also called soluble, monomeric CD23 construct; soluble fragment of CD23
T1 sequence (P06734 whole entry, looked up): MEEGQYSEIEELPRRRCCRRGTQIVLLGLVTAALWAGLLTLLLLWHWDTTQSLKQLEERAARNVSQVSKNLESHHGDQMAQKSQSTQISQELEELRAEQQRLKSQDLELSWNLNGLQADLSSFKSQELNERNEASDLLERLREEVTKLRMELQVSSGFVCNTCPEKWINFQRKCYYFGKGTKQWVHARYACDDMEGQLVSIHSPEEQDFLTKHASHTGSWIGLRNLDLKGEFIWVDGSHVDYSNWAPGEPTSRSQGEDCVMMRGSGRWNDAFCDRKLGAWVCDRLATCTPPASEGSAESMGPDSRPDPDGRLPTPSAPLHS

8D6 Fab = target: T2, 8D6 Fab; experiment: SPR; Biacore T200; 8D6 Fab amine-coupled to a CM5 chip; His-tagged IgE-Fc injected at 100 nM to 190 pM (2-fold dilutions) in HBS-P (10 mM HEPES pH 7.4, 150 mM NaCl, 0.005% surfactant P20), 30 uL/min; constants from low and intermediate concentrations; settings: both partners purified
T2 construct: In SPR it was amine-coupled to a CM5 chip or injected as analyte; also called recombinant 8D6 Fab; anti-IgE antibody Fab (8D6)
T2 sequence (heavy, as listed by the source, chain 1 of 2): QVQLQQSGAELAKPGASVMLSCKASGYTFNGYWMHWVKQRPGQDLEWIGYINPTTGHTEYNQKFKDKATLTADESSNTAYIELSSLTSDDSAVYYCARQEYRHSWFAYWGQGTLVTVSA
T2 sequence (light, as listed by the source, chain 2 of 2): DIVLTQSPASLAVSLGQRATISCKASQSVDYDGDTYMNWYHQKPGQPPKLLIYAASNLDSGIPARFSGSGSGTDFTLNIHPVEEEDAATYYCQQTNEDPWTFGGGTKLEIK

Kd (derCD23): 1.8 µM and 1.7 µM and 1.6 µM
Kd (8D6 Fab): ~20 pM
koff (8D6 Fab): 8e-05 s⁻¹
kon (8D6 Fab): 5e+06 M⁻¹ s⁻¹
B1: His-tagged IgE-Fc (domain or fragment)
chain: VASRDFTPPTVKILQSSCDGGGHFPPTIQLLCLVSGYTPGTIQITWLEDGQVMDVDLSTASTTQEGELASTQSELTLSQKHWLSDRTYTCQVTYQGHTFEDSTKKCADSNPRGVSAYLSRPSPFDLFIRKSPTITCLVVDLAPSKGTVQLTWSRASGKPVNHSTRKEEKQRNGTLTVTSTLPVGTRDWIEGETYQCRVTHPHLPRALMRSTTKTSGPRAAPEVYAFATPEWPGSRDKRTLACLIQNFMPEDISVQWLHNEVQLPDARHSTTQPRKTKGSGFFVFSRLEVTRAEWEQKDEFICRAVHEAASPSQTVQRAVSVNPGK
modifications: disulfide-linked homodimer; N-glycosylated at Asn394 (high-mannose); N-terminal 6xHis/Xpress tag omitted; C225A, N265Q and N371Q taken as already in the deposited entity; C-terminal end taken from …

— paper PMC6070508, “Structural basis for selective inhibition of immunoglobulin E-receptor interactions by an anti-IgE antibody” (Scientific Reports, 2018)
